From the nanobody polyreactivity screen of Harvey et al. (2022) come the findings set out here.

This data set is described as follows: yeast display, Sf9 membrane polyspecificity reagent, FACS + sequencing; frameworks hold sequencing errors. The procedure, abridged: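 Polyreactivity labels are assigned by the sorting gate from which each nanobody was recovered. The gates were low and high (top ~1%), set on anti-HA fluorescence for expression and streptavidin fluorescence for reagent binding. Before sorting, galactose-induced (36–48 hours) yeast display cells were stained for 1 hour at 4 °C with 10% biotinylated, detergent-solubilized Sf9 membrane reagent.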
For “QVQLVESGRGLVQAGGSLRLSCAASGSTFPGNAMGWYRQAPGKERELVAAIRDRGTSTYYADSVKGRFTISRDNAKNTVYLQMNSLKPEDTAVYYCAAASSVAKGRWRLYDYWGQGTQVTVSS”, the “polyreactivity (PSR sort gate)” value is on record as “high polyreactivity”.

As for “QVQLVESGRGLVQAGGSLRLSCAASVNIFRGYTMGRYRQAPGTERELVATITWNGVSTFYADSVKGRFTISRDNAKNTVYLQMHSLKPEDTAVYYCAAYYPSHDYSGFWSDTYEYWGQGTQVTVSS”, the “polyreactivity (PSR sort gate)” value is “low polyreactivity”.

Take “QVQLVESGRGLVQAGGSLRLSCAPSGFTFYRNEMGWYRQAPGKERELVAAITFSGGITYYADSVKGRFTISRDNAKNTVYLQMNSLKPEDTAVYYGAAEGVGPARVYQGGEYNYWGQGTQVTVSS”: the “polyreactivity (PSR sort gate)” value is reported as “low polyreactivity”.

In the case of “QVQLVESGRGLVQAGGSLRLSCAPSGSNFPPNAMGWYRQAPGKEREFVASITSSGGITNYADSVKGRFTISRDNAKNTVYLQMNSLKPEDTAVYFCAAVQTWRWVYARDYWGQGTQVTVSS”, the “polyreactivity (PSR sort gate)” value is reported as “high polyreactivity”.

As to “QVQLVESGRGLVQAGGSLRVSCAASGNTYLYYGMGWYRHAPGKERELVAAITQSGGTTYYADSVKGRFTISRDNAKNTVYFQMNTLIPEDTAVYYFAATRYYYYWYVYDDRGDYWGQGTQVSVSS”, the “polyreactivity (PSR sort gate)” value is “low polyreactivity”.

Take “QVQLVESGRGLVQAGGSLSLSCAASGITFRPYPMGWYRKAPGKERELVAAISRGGSSTYYADSVKGRFTISRDYAKNTVYLQMISLKPEDTAVYYFAARNNKKYDYWGQGTQVTVSS”: the “polyreactivity (PSR sort gate)” value is “high polyreactivity”.

For the sequence “QVQLVESGRGLVQAGRSLRLSCAASGFIFETYPMGWYRQAPGKVRELVAAISRGASTYYADSVKGRFTISRDNAKNTVYLQMNSLTPEDTAVYNCAAQQGISYGTGVSATNPMDYWGQGTHVTVSS”, the “polyreactivity (PSR sort gate)” value is “low polyreactivity”.

Turning to “QVQLVESGRGLVQAGVSLRLSCAASGFIFKGYAMGWYRQATGKERELVAAITWSGRTYYADSVKGRFTISRDNAKNTVYLKMNSLKPEDTAVFYCAVDRGRGSTYKYDYWGQGTQVNVSS”, the “polyreactivity (PSR sort gate)” value was “low polyreactivity”.

“QVQLVESGRGLVQAGVSLRLSCAASGRIFTNNAMGLYRQAPGKERELVAAINVSGGRTYYADSVKGRFTISRENAKNTVYLQMNSLKPEDTAVYYCNKVKETYMDYWGQGTQVTVSS”: the “polyreactivity (PSR sort gate)” value was “high polyreactivity”.

With “QVQLVESGRGLVQAGVSLRLSCAASGRTFVLYTMGWYRQAPGKERELVAAITKSGGSTYYADSVKGRFTISRDNAKNTVYLQMNSLKPEDTAVYYCAAARRYYTYYREDYYYWGQGTLVTVSS”, the “polyreactivity (PSR sort gate)” value is reported as “high polyreactivity”.

For “QVQLVESGRGLVQAVGSLRLSSAASGSIFMWYTMGCYRQAPGKERELVAAISKSGGRTYYADSVKGRFTISRDNAKNTVYLQMNSMKPEDTAVYYCAKLYPYDSPVPDGHQFDYWGQGTQVTVSS”, the “polyreactivity (PSR sort gate)” value is reported as “high polyreactivity”.

As to “QVQLVESGRGLVQEGGSLRLSCAASGFTFYGYAMGWYRQAPGKERELVAAINSGGRTYYADSVKGRFTISRDNAKNSVYLQMNSLKPEDTAVYYCAAVSLYTSDYYWGQGTQVTVSS”, the “polyreactivity (PSR sort gate)” value was “high polyreactivity”.

Consider “QVQLVESGRRLVQAGGSLRLSCAASGSTFYGYGMGWYRPAPRQERELVAAITGSGDTTYYADSVKGRFTISRDNAKNTVYLQMNSLKPEDTAVYYCNARWHAEYDYWGQGTQVTVSS”, for which the “polyreactivity (PSR sort gate)” value is on record as “low polyreactivity”.

Take “QVQLVESGRRLVQAGGSLRLSCAASGSTFYGYGMGWYRQAPGKERELVAAITGSGDTTYYADSVKGRFTISRDNAKNTVYLQLNSLKPEDTAVDYCNARWHAEYDYWGQGTQVTVSS”: the “polyreactivity (PSR sort gate)” value is given as “low polyreactivity”.

Regarding “QVQLVESGRRLVQAGGSLRLTCAASGSTFTRYAMGWYRQAPGKERELVASISGSGGRTYYADSVKGRFTISRDNAMNTVYLQMNSLKPEDTAVYYCAAKITRRYYPGYLFDYWGQGNQVTVSS”, the “polyreactivity (PSR sort gate)” value is listed as “high polyreactivity”.

For the sequence “QVQLVESGVCLVQAGGSLRLSCASSGLIIPPNAMGWYRQPPGKERELVASITRSGGSTYYADSVKGRFTISRDNAKNTVYVQMNSLTPEDTAVYYCAAYLDTSRYGVLYDYWGQGTQVTVSS”, the “polyreactivity (PSR sort gate)” value is given as “low polyreactivity”.

With “QVQLVESGVGIVQARGSLRLSCAASGYTFYRYTMGWYRQSRGNERELVAAINSGGSTNYADSVKGRFTISRDNAKNTVYLQMNSLKPEDTAVYYCAAGDGPWLPRVHYGGYGYWGQGTQVTVSS”, the “polyreactivity (PSR sort gate)” value was “high polyreactivity”.

As to “QVQLVESGVGKVQAGGSLRLSCAASGSTIGSNAMGWYRQAPGKESELVATINWRGGSTYADSVKGRFTLSRDNAKNTVYLQINSLKPEDTAVYYCKKVRGAFYSHLFDYWGQGTEVTVSS”, the “polyreactivity (PSR sort gate)” value is on record as “high polyreactivity”.

In the case of “QVQLVESGVGLFQAGGSLRLSCAASGITFYSYAMGWYRQAPGKESQLVATISRSGSTYYADSVKGRFTISRDNAKNSVYLQMNSLKPEDTAVYYCAAYYAVRGATYRYGYWGQGTQVTVSS”, the “polyreactivity (PSR sort gate)” value is given as “high polyreactivity”.

Consider “QVQLVESGVGLVHAGGSLRLSCAASGFTFKENAMGWYRQAPGKERELVAAISSTGGSTYYADSVKGRFTISRDIAKNTVYLQINRLKPEDTAVYYCAASTYWYDGDYWGQGTQVTVSS”, for which the “polyreactivity (PSR sort gate)” value is “high polyreactivity”.

With “QVQLVESGVGLVKAGGILRLSCAASGFTFASNVMGWSRQAPGKERELVAAITSGASTNYADSVKGRFTISRDNAKNTVYLQMNSLKPEDTAVYYCAAGRQWYVFYEFDYWGQGTQVTVSS”, the “polyreactivity (PSR sort gate)” value is on record as “high polyreactivity”.

With “QVQLVESGVGLVQAAGSLRLSCAASGFIFWVNAMGWYRQAPGKEREFVAAIRSSGGNTYYADSVKGRFTISRDNAKNTVYLQMNSLKPEDTAVYYCAADSVIVTYESDYWGQGTQVTVSS”, the “polyreactivity (PSR sort gate)” value is recorded as “low polyreactivity”.

Consider “QVQLVESGVGLVQAGCSLRLSCAASGFTNAMGWYRQAPGKERELVAAISYSGDSTNYADSLKGRFTISRDNAKNTVYLQMNSMKPVDTAVYYCNASSPYDYDWGQGTQVTVSS”, for which the “polyreactivity (PSR sort gate)” value was “low polyreactivity”.

With “QVQLVESGVGLVQAGCSLRLSCAASGSTFVLNAMGWYLQAAGKERELVAAISRGGASTYSADSVKGRFTISRDYAKNTVYLQMNSLKPEDTAVYYCNASGYGPGVVIYLVVYDYWGQGTQVTVSS”, the “polyreactivity (PSR sort gate)” value was “low polyreactivity”.

Regarding “QVQLVESGVGLVQAGGILRLSCAASGFIFALNAMGWYRQAPGKERELVATIDSTSGSTYYADSVKGRFTISRDNAKNTVYLEMNSLKPEDTAVYYCAVVHAQSAPMDYWGQGTQVTVSS”, the “polyreactivity (PSR sort gate)” value was “low polyreactivity”.

Turning to “QVQLVESGVGLVQAGGILSLSCAASGLTFGAYTMGWYRQAPGKERELVAAITSSGGRTYYADSVKGRFTISRDNAKITFYLQMNSLKPEDTAVFYCNARIFRSPNPYDYWGQGTQVSVSS”, the “polyreactivity (PSR sort gate)” value is given as “high polyreactivity”.

As to “QVQLVESGVGLVQAGGRLLLSCAASRSIFTRYTMGWYSQAPGKEWELVATISSRGDGTFYADSVKGRFTISRDNAKNTFYLQMNSLKPEDTAVYYCAARYRRVHSGYGYWGQVTQVTVSS”, the “polyreactivity (PSR sort gate)” value is reported as “high polyreactivity”.

On to “QVQLVESGVGLVQAGGRLRLSCAASGRTFYYYAMGWYRQAAAKERELVAAITTDGGNTFYADSVKGRFTISRDNAKNSVYIQMNSLKPEDSAVYYWAKSDTEGYYWDVPVTFDYGGQGTQVTVSS”, for which the “polyreactivity (PSR sort gate)” value is “low polyreactivity”.

“QVQLVESGVGLVQAGGSHRLSCAASGFTFLINAMGWYRQEPWKERELVAAIRSGGSTNYADSVKGRFTISRDNAKNTVYLQMNSLKPEETAVYYCAARRYYPDKYRYGYWGQGTQVTVSS”: the “polyreactivity (PSR sort gate)” value is given as “high polyreactivity”.

For the sequence “QVQLVESGVGLVQAGGSLRLICAASGRTFYWYAMGWYRQAPRKERELVATITRGGRTYYADSVKGRFTISRDNAKNTVYLQMNSLKPEDTAVYDCATVSIAGPRYDYWGQGTQVTVSS”, the “polyreactivity (PSR sort gate)” value is reported as “high polyreactivity”.

Take “QVQLVESGVGLVQAGGSLRLICAASGSIFWSNAMGWYTQAPGKERELVAAISSGGSTYADSVKGRFTISRDNAKNTVYLQMNSLKPEDTAVYYCNADVLYGDSYRGGYWGQGTQVTVSS”: the “polyreactivity (PSR sort gate)” value was “low polyreactivity”.

Consider “QVQLVESGVGLVQAGGSLRLICAASGSIFYPYTMGWYRQAPGKERELVAAITINGGSTYYADSVKGRFTISRDNAKNTVYLQMNSLKPEDTAVYYCAAYYASPRHGYWGQGTQVTVSS”, for which the “polyreactivity (PSR sort gate)” value is on record as “low polyreactivity”.

For the sequence “QVQLVESGVGLVQAGGSLRLRCAASGSTFIVYALRWSRQAPGKERELVAAISWNGGRTYYADSVKGRFTISRDNAKKTVYLQMNSLKPEDTAVYYCPATLYNTEDDYWGQGTQVTLSS”, the “polyreactivity (PSR sort gate)” value is “low polyreactivity”.

Turning to “QVQLVESGVGLVQAGGSLRLSCAASGFIFCGYAMVWYRHAPGKERELVAAISWSGDNTYYADSVKGRFTISRDNAKNTVYFQMNSLKPEDTAVYYCAADSYGQEYDYWGQGTQVSVSS”, the “polyreactivity (PSR sort gate)” value was “low polyreactivity”.

Consider “QVQLVESGVGLVQAGGSLRLSCAASGFIFDHNAMGWYRQAPGKERELVAAITRSGGSTYYADSVKGRFTISRDNAKNTVYLQMNSLKPEDTAVYYCAADLSYRGATRGDYYWGQGTQVTVSS”, for which the “polyreactivity (PSR sort gate)” value is given as “low polyreactivity”.

Consider “QVQLVESGVGLVQAGGSLRLSCAASGFIFHRNAMGWYRQAPGKERELVASITKRGGNTYYADSVKGRFTISRDNAKNTVYLQMNSLKPEDTAVYYCATHLWGWDWKRDYWGQGTQVTVSS”, for which the “polyreactivity (PSR sort gate)” value is on record as “high polyreactivity”.

Take “QVQLVESGVGLVQAGGSLRLSCAASGFIFPTYAMGWYRQAPGKEREFVASITRRGGSTYYADSVKGRFTISRDNAKNSVYLQMNSLKPEDTAVYYCAAGYYGFRGGGSDYWGQGTQVTVSS”: the “polyreactivity (PSR sort gate)” value is reported as “high polyreactivity”.

Take “QVQLVESGVGLVQAGGSLRLSCAASGFIFRKYTMGWYRQAPGKERELVATIDSSGGSTYYADSVKGRFTISRDNAKNTVYLQMNSLKPEDTAVYYCNADLRELSPWYWYSGEMDYWGQGTQVTVSS”: the “polyreactivity (PSR sort gate)” value is listed as “low polyreactivity”.

In the case of “QVQLVESGVGLVQAGGSLRLSCAASGFIFYRNAMGWYRPAPGKERELVAGISRVGSTYYADSVKGRFTISRDNAKNTVYLQMKSLKPEDTAVYYCATSTYAYRRNSYYYTRPRFGYWGQGTQVSVSS”, the “polyreactivity (PSR sort gate)” value is “high polyreactivity”.

“QVQLVESGVGLVQAGGSLRLSCAASGFILTAYDMGWYRQAPGKERELVAAIDWIGGSTYYADSVKGRFTISRDNAKNTVYLQMNSLKPEDTAVYYCAARFYSYVYRLDYWGQGTQVTVSS”: the “polyreactivity (PSR sort gate)” value is listed as “low polyreactivity”.

Take “QVQLVESGVGLVQAGGSLRLSCAASGFTFSYNALGWYRQAPGKERELVAAISSSGGSTYYADSVKGRFTISRDNAKNTVYLQMNILKPEDTAVYYCAVPYLTLYGRTYDYWGHGTQVTVSS”: the “polyreactivity (PSR sort gate)” value is reported as “high polyreactivity”.
